Measurements: the Immune Epitope Database (IEDB)

Columns and labels:
HLA-A*02:01 [1] = test: IEDB peptide-MHC binding, purified MHC/competitive/fluorescence; ≥ and ≤ were set here for values at or beyond the usual limits of such assays
HLA-A*24:02 = test: as above
HLA-A*02:06 = test: IEDB peptide-MHC binding, purified MHC/competitive/radioactivity; filed as Kd, often an IC50 or EC50 that approximates it; ≥ and ≤ were set here for values at or beyond the usual limits of such assays
HLA-A*02:03 = test: as above; settings: source organism: Lassa virus Josiah
HLA-A*02:02 = test: as above; settings: source organism: Lassa virus Josiah
HLA-A*68:02 = test: as above
HLA-B*15:01 = test: IEDB peptide-MHC binding, purified MHC/direct/fluorescence; filed as Kd, often an IC50 or EC50 that approximates it; ≥ and ≤ were set here for values at or beyond the usual limits of such assays
HLA-A*02:01 [2] = test: as above
HLA-B*40:01 = test: as above
HLA-A*69:01 = test: as above
HLA-B*58:01 = test: as above
HLA-B*08:01 = test: as above
HLA-A*01:01 = test: as above
HLA-B*27:05 = test: as above
HLA-A*03:01 = test: as above
HLA-B*07:02 [3] = test: as above
HLA-B*44:02 = test: as above
HLA-A*26:01 [4] = test: as above
HLA-A*11:01 = test: as above
HLA-A*31:01 = test: as above
HLA-B*53:01 = test: IEDB peptide-MHC binding, purified MHC/competitive/radioactivity; filed as Kd, often an IC50 or EC50 that approximates it; ≥ and ≤ were set here for values at or beyond the usual limits of such assays
HLA-B*35:01 = test: as above
HLA-A*26:01 [5] = test: as above
HLA-B*07:02 [6] = test: as above; settings: source organism: Dengue virus 2 Jamaica/1409/1983
[7] = source organism: Zaire ebolavirus
[8] = source organism: Lassa virus Josiah
[9] = source organism: Cryptosporidium parvum
[10] = source organism: Giardia lamblia ATCC 50803
[11] = source organism: Sudan ebolavirus
[12] = source organism: Dengue virus 3 Martinique/1243/1999
[13] = source organism: Dengue virus 4 Philippines/H241/1956
[14] = source organism: Pseudomonas aeruginosa UCBPP-PA14
[15] = source organism: Dengue virus 1 Brazil/97-11/1997

Sequence: AAIGLAWIP
- IC50 (HLA-A*02:01 [1]; [7]): ≥ 280 µM
- IC50 (HLA-A*24:02; [7]): ≥ 131 µM

Sequence: ALMDCIMFDA
- Kd (HLA-A*02:06; [8]): 0.0336 µM
- Kd (HLA-A*02:03): 0.00962 µM
- Kd (HLA-A*02:02): 0.00525 µM
- Kd (HLA-A*68:02; [8]): ≥ 5 µM

Sequence: ANLEDLIEW
- IC50 (HLA-A*24:02; source organism: Vaccinia virus): ≥ 235 µM

Sequence: DFIGKTIGF
- Kd (HLA-B*15:01; [9]): ≥ 20 µM
- Kd (HLA-A*02:01 [2]; [9]): ≥ 20 µM
- Kd (HLA-B*40:01; [9]): ≥ 20 µM
- Kd (HLA-A*69:01; [9]): ≥ 20 µM
- Kd (HLA-B*58:01; [9]): ≥ 20 µM
- Kd (HLA-B*08:01; [9]): ≥ 20 µM
- Kd (HLA-A*01:01; [9]): ≥ 20 µM
- Kd (HLA-B*27:05; [9]): ≥ 20 µM
- Kd (HLA-A*03:01; [9]): ≥ 20 µM
- Kd (HLA-B*07:02 [3]; [9]): ≥ 20 µM
- Kd (HLA-B*44:02; [9]): ≥ 20 µM
- Kd (HLA-A*26:01 [4]; [9]): 0.186 µM
- Kd (HLA-A*11:01; [9]): ≥ 20 µM
- Kd (HLA-A*31:01; [9]): ≥ 20 µM

Sequence: DGQQFYWPV
- IC50 (HLA-A*02:01 [1]; [7]): 57.2 µM
- IC50 (HLA-A*24:02; [7]): 62 µM

Sequence: DLKDQIAQL
- Kd (HLA-A*02:06; source organism: Homo sapiens): ≥ 78.7 µM
- Kd (HLA-A*68:02; source organism: Homo sapiens): 0.826 µM

Sequence: DTTIGEWAF
- IC50 (HLA-A*24:02; [7]): 25.5 µM

Sequence: DYIYLPLLK
- Kd (HLA-B*15:01; [10]): ≥ 20 µM
- Kd (HLA-A*02:01 [2]; [10]): ≥ 20 µM
- Kd (HLA-B*40:01; [10]): ≥ 20 µM
- Kd (HLA-A*69:01; [10]): ≥ 20 µM
- Kd (HLA-B*58:01; [10]): ≥ 20 µM
- Kd (HLA-B*08:01; [10]): ≥ 20 µM
- Kd (HLA-A*01:01; [10]): ≥ 20 µM
- Kd (HLA-B*27:05; [10]): ≥ 20 µM
- Kd (HLA-A*03:01; [10]): 2.22 µM
- Kd (HLA-B*07:02 [3]; [10]): ≥ 20 µM
- Kd (HLA-B*44:02; [10]): ≥ 20 µM
- Kd (HLA-A*26:01 [4]; [10]): ≥ 20 µM

Sequence: ELCAEAEEL
- Kd (HLA-A*68:02; source organism: Homo sapiens): 1.06 µM

Sequence: ELLPAVSSG
- IC50 (HLA-A*02:01 [1]; [7]): ≥ 194 µM

Sequence: ELSFEALSL
- IC50 (HLA-A*02:01 [1]; [11]): 23.9 µM
- IC50 (HLA-A*24:02; [11]): 39.5 µM

Sequence: ELTCLNEASV
- Kd (HLA-A*68:02; source organism: Homo sapiens): 0.0688 µM

Sequence: EPIEGKVVQY
- Kd (HLA-B*53:01; [12]): 5.03 µM
- Kd (HLA-B*35:01; [12]): 0.491 µM
- Kd (HLA-A*26:01 [5]; [12]): 2.73 µM

Sequence: EPWLSSKPEF
- Kd (HLA-B*53:01; [13]): 0.684 µM
- Kd (HLA-B*35:01; [13]): 1.38 µM

Sequence: ESGAVKYLE
- IC50 (HLA-A*24:02; [7]): ≥ 209 µM

Sequence: ETQGVTAEI
- Kd (HLA-A*68:02; [12]): 0.00296 µM
- Kd (HLA-A*26:01 [5]; [12]): 0.282 µM

Sequence: ETWMSSEGA
- Kd (HLA-A*68:02; source organism: Dengue virus 2 Jamaica/1409/1983): 0.00286 µM

Sequence: GLGGDASAY
- Kd (HLA-B*15:01; source organism: Pseudomonas aeruginosa): 0.3 µM
- Kd (HLA-A*02:01 [2]; [14]): ≥ 20 µM
- Kd (HLA-B*40:01; [14]): ≥ 20 µM
- Kd (HLA-A*69:01; [14]): ≥ 20 µM
- Kd (HLA-B*58:01; [14]): ≥ 20 µM
- Kd (HLA-B*08:01; [14]): ≥ 20 µM
- Kd (HLA-A*01:01; [14]): ≥ 20 µM
- Kd (HLA-B*27:05; [14]): ≥ 20 µM
- Kd (HLA-A*03:01; [14]): ≥ 20 µM
- Kd (HLA-B*07:02 [3]; [14]): ≥ 20 µM
- Kd (HLA-A*26:01 [4]; [14]): ≥ 20 µM
- Kd (HLA-A*11:01; [14]): ≥ 20 µM
- Kd (HLA-A*31:01; [14]): ≥ 20 µM

Sequence: GPMPVTHSSA
- Kd (HLA-B*07:02 [6]): 0.00721 µM

Sequence: HALLATSIF
- Kd (HLA-B*35:01; [15]): 0.0168 µM

Sequence: HTIENTTANI
- Kd (HLA-A*68:02; [15]): 0.00175 µM
- Kd (HLA-A*26:01 [5]; [15]): 2.07 µM

Sequence: IIQAFEAGV
- IC50 (HLA-A*02:01 [1]; [7]): 2.47 µM

Sequence: IPATLFVWY
- Kd (HLA-B*53:01; [15]): 0.01 µM
- Kd (HLA-B*35:01; [15]): 0.00339 µM

Sequence: IYTEGLMHN
- IC50 (HLA-A*24:02; [11]): 4.41 µM

Sequence: KEGAFFLYD
- IC50 (HLA-A*02:01 [1]; [7]): ≥ 3840 µM
- IC50 (HLA-A*24:02; [7]): 46 µM
